Measurements published in patent US20150183820A1.
Substitutions are numbered along the chain they refer to. Read-outs that look alike come from different tables or passages of the source.

How the values were obtained:
[1] = target: gamma-globulin derived from human serum (Wako Pharmaceuticals); assay: pH gradient affinity chromatography, commercial comparison column
human IgG3 [2] = assay: pH gradient affinity chromatography, Epoxy-activated Sepharose 6B immobilized column
[3] = target: IgG1 type humanized monoclonal antibody; assay: as above
[4] = target: ChromPure Human IgG, Fc Fragment (human); assay: stepwise pH affinity chromatography, binder immobilized on streptavidin column
human immunoglobulin IgG [5] = assay: SPR, binder on SA chip, dissociation at pH 4.0, 1:1 Langmuir
[6] = target: IgG1 type humanized monoclonal antibody; assay: pH gradient affinity chromatography, binder immobilized on streptavidin column
human immunoglobulin IgG [7] = assay: SPR, binder on SA chip, 1 uM IgG, dissociation in 10 mM sodium acetate pH 4.0
human immunoglobulin IgG [8] = assay: SPR, binder on SA chip, dissociation at pH 4.0
[9] = target: Fc region of human immunoglobulin (human); assay: SPR, Fc on CM5 chip, pH 7.4, 1:1 Langmuir
[10] = target: Fc region of human immunoglobulin (human); assay: SPR, Fc on CM4 chip, pH 4.5, 1:1 Langmuir
[11] = target: IgG1 type humanized monoclonal antibody; assay: SPR, IgG1 antibody amine-coupled on CM-5 chip (5000 RU), pH 7.4, 25 C, 1:1 Langmuir
[12] = target: Fc region of human immunoglobulin (human); assay: SPR, Fc on CM5 chip, pH 7.4
[13] = target: Fc region of human immunoglobulin (human); assay: SPR, Fc on CM4 chip, pH 4.5
[14] = target: IgG1 type humanized monoclonal antibody; assay: SPR, IgG1 antibody amine-coupled on CM-5 chip, pH 7.4
human IgG3 [15] = assay: pH gradient affinity chromatography, SulfoLink immobilized column
[16] = target: IgG1 type humanized monoclonal antibody; assay: as above
[17] = target: gamma-globulin derived from human serum (Wako Pharmaceuticals); assay: pH gradient affinity chromatography, DSC-activated immobilized column
[18] = target: IgG1 type humanized monoclonal antibody

Question: With “Sepharose 4 Fast Flow column (GE Healthcare)” as the molecule, how does the elution peak pH [1] read?
Answer: 3.2 pH

B1: CGB01H-3D (protein)
chain: MAYYDPETGTWYSGGRDTYKLILNGKTLKGETTTEAVDAATAEKVFKQYANDNGVDGEWTYDDATKTFTVTERPEVIDASELTPAVDTYKLILNGKTLKGETTTEAVDAATAEKVFKQYANDNGVDGEWTYDDATKTFTVTERPEVIDASELTPAVDTYKLILNGKTLKGETTTEAVDAATAEKVFKQYANDNGVDGEWTYDDATKTFTVTERPEVIDASELTPAVGGGGCHHHHHH
Question: How did the elution peak pH (human IgG3 [2]) turn out when B1 was run?
Answer: 3.4 pH

Question: And the elution peak pH [3]?
Answer: 3.3 pH

B2: OXADac-PG01 (protein)
chain: MGAGTPVTAPLAGTIWKVLASEGQTVAAGEVLLILEAMKMETEIRAAQAGTVRGIAVKAGDAVAVGDTLMTLAGSGSDLYDDDDKGIITSLYKKAGSAAAPFTDTYKLILNGKTLKGETTTEAVDAATAEKVFKQYANDNGVDGEWTYDDATKTFTVTE
Question: How did the recovery ratio of antibody in step-wise pH chromatography at pH 4.0 [4] turn out when B2 was run?
Answer: 10%

Question: What about the koff (human immunoglobulin IgG [5]) of the same molecule?
Answer: 4.2e-05 s⁻¹

Question: What about the value of the elution peak of antibody in pH-gradient chromatography [6] of the same molecule?
Answer: 3.18 pH

Question: What about the ratio of the remaining amount of antibody by SPR sensorgram at pH 4.0 (human immunoglobulin IgG [7]) of the same molecule?
Answer: 99%

B3: OXADac-PG17 (designed binder)
chain: B2 chain with T114R, T120I, D139E, N140H, D150P, A151E
Question: How did the koff (human immunoglobulin IgG [5]) turn out when B3 was run?
Answer: 0.032 s⁻¹

Question: And the value of the elution peak of antibody in pH-gradient chromatography [6]?
Answer: 3.27 pH

Question: What about the ratio of the remaining amount of antibody by SPR sensorgram at pH 4.0 (human immunoglobulin IgG [7]) of the same molecule?
Answer: 86%

B4: OXADac-PG16 (designed binder)
chain: B2 chain with T120I, D139E, N140H, D150P, A151E
Question: With B4 as the molecule, how does the koff (human immunoglobulin IgG [5]) read?
Answer: 0.00013 s⁻¹

Question: And the ratio of the remaining amount of antibody by SPR sensorgram at pH 4.0 (human immunoglobulin IgG [7])?
Answer: 94%

B5: OXADac-PG13 (designed binder)
chain: B2 chain with D139E, N140H, D143H, D150P, A151E
Question: How did the koff (human immunoglobulin IgG [5]) turn out when B5 was run?
Answer: 0.06 s⁻¹

Question: And the value of the elution peak of antibody in pH-gradient chromatography [6]?
Answer: 3.56 pH

Question: What about the ratio of the remaining amount of antibody by SPR sensorgram at pH 4.0 (human immunoglobulin IgG [7]) of the same molecule?
Answer: 64%

B6: OXADac-PG07 (designed binder)
chain: B2 chain with D139E, N140H, D150P, A151E
Question: With B6 as the molecule, how does the koff (human immunoglobulin IgG [5]) read?
Answer: 0.00011 s⁻¹

Question: What about the ratio of the remaining amount of antibody by SPR sensorgram at pH 4.0 (human immunoglobulin IgG [7]) of the same molecule?
Answer: 93%

B7: OXADac-PG20 (designed binder)
chain: B2 chain with D125H, Q135H, D139E, N140H, D143H, E145H, D150P, A151E
Question: With B7 as the molecule, how does the elution rate at pH 4 against the wild-type (OXADac-PG01) [4] read?
Answer: 7 times

Question: What about the recovery ratio of antibody in step-wise pH chromatography at pH 4.0 [4] of the same molecule?
Answer: 71%

Question: And the elution pH difference against the wild-type (OXADac-PG01) [6]?
Answer: 1.1 pH points

Question: What about the value of the elution peak of antibody in pH-gradient chromatography [6] of the same molecule?
Answer: 4.29 pH

Question: What about the ratio of the remaining amount of antibody by SPR sensorgram at pH 4.0 (human immunoglobulin IgG [7]) of the same molecule?
Answer: 58%

B8: OXADac-PG15 (designed binder)
chain: B2 chain with T114R, D139E, N140H, D150P, A151E
Question: With B8 as the molecule, how does the koff (human immunoglobulin IgG [5]) read?
Answer: 0.00044 s⁻¹

Question: And the ratio of the remaining amount of antibody by SPR sensorgram at pH 4.0 (human immunoglobulin IgG [7])?
Answer: 90%

B9: OXADac-PG14 (designed binder)
chain: B2 chain with D139E, N140H, E145H, D150P, A151E
Question: For B9, which koff (human immunoglobulin IgG [5]) is on record?
Answer: 0.04 s⁻¹

Question: What about the ratio of the remaining amount of antibody by SPR sensorgram at pH 4.0 (human immunoglobulin IgG [7]) of the same molecule?
Answer: 71%

B10: OXADac-PG19 (designed binder)
chain: B2 chain with Q135H, D139E, N140H, D143H, E145H, D150P, A151E
Question: Which elution rate at pH 4 against the wild-type (OXADac-PG01) [4] does the source give for B10 here?
Answer: 7 times

Question: And the recovery ratio of antibody in step-wise pH chromatography at pH 4.0 [4]?
Answer: 88%

Question: What about the koff (human immunoglobulin IgG [5]) of the same molecule?
Answer: 0.27 s⁻¹

Question: What about the increase of the dissociation rate constant against the wild-type (OXADac-PG01) (orders of magnitude) (human immunoglobulin IgG [8]) of the same molecule?
Answer: 3

Question: And the percent of adsorbed IgG dissociated at pH 4.0 (human immunoglobulin IgG [8])?
Answer: 60%

Question: And the value of the elution peak of antibody in pH-gradient chromatography [6]?
Answer: 4.04 pH

Question: What about the ratio of the remaining amount of antibody by SPR sensorgram at pH 4.0 (human immunoglobulin IgG [7]) of the same molecule?
Answer: 38%

B11: M-PG07 (designed binder)
chain: MDTYKLILNGKTLKGETTTEAVDAATAEKVFKQYANEHGVDGEWTYDPETKTFTVTE
Question: B11 was tested. Which Kd [9] did it give?
Answer: 290 nM

Question: And the Kd [10]?
Answer: 230 nM

B12: M-PG19 (designed binder)
chain: B11 chain with Q33H, D41H, E43H
Question: With B12 as the molecule, how does the Kd [9] read?
Answer: 43 nM

Question: And the Kd [11]?
Answer: 19 nM

Question: What about the avidity in the neutral region against M-PG01 [12] of the same molecule?
Answer: 11 times

Question: What about the Kd [10] of the same molecule?
Answer: 1000 nM

Question: And the affinity in the acidic region against M-PG01 [13]?
Answer: 0.6 times

B13: CGB19H-3D (designed binder)
chain: MAYYDPETGTWYSGGRDTYKLILNGKTLKGETTTEAVDAATAEKVFKHYANEHGVHGHWTYDPETKTFTVTERPEVIDASELTPAVDTYKLILNGKTLKGETTTEAVDAATAEKVFKHYANEHGVHGHWTYDPETKTFTVTERPEVIDASELTPAVDTYKLILNGKTLKGETTTEAVDAATAEKVFKHYANEHGVHGHWTYDPETKTFTVTERPEVIDASELTPAVGGGGCHHHHHH
Question: What does the source list for B13?
Answer: avidity improvement against the single domain-type M-PG19 [14]: 190 fold; difference of the dissociation rate constants against M-PG19 [14]: 370 times; elution peak pH (human IgG3 [2]): 4.9 pH; Kd [11]: 0.1 nM; elution peak pH (human IgG3 [15]): 5.2 pH; elution peak pH [16]: 4.3 pH; elution peak pH [17]: 3.6 pH; elution peak pH [18]: 4.3 pH
